Reference: PMC3587332 (FEBS letters, 2012)

B1: Fip1(1–206) (domain or fragment, S. cerevisiae, UniProt P45976 1-206, looked up)
chain: MSSSEDEDDKFLYGSDSELALPSSKRSRDDEADAGASSNPDIVKRQKFDSPVEETPATARDDRSDEDIYSDSSDDDSDSDLEVIISLGPDPTRLDAKLLDSYSTAATSSSKDVISVATDVSNTITKTSDERLITEGEANQGVTATTVKATESDGNVPKAMTGSIDLDKEGIFDSVGITTIDPEVLKEKPWRQPGANLSDYFNYGFN
B2: Sub1-V5-His6 (natural protein, S. cerevisiae, UniProt P54000 1-292, looked up)
chain: MSYYNRYRNKRRSDNGGGNLSNSNNNNGGMPSGLSASDAIFDLGKNKRVTVRQFRNINLIDIREYYLDSSTGEMKPGKKGISLTEDLYDELLKHRLNIDEALRRLGSKRPKTKMVRLLSDDEYEDDNNNDSTNNDKDKNGKDKNSPKKRREDKSKASNESHDLEPRSKKKKPAPPTLLPHEENIQNAEREANATLIIPGQAGRKQQEERKQKEKEEAEEAKAKAVAEQEKEAKAKEKIAEPEPEPVPTLQAKKEDIVSNINESKDANSSDEEFAQSLEAEMNKAEDDISEEE
B3: GST-Pta1 (1–300) (domain or fragment, S. cerevisiae, UniProt Q01329 1-300, looked up)
chain: MSSAEMEQLLQAKTLAMHNNPTEMLPKVLETTASMYHNGNLSKLKLPLAKFFTQLVLDVVSMDSPIANTERPFIAAQYLPLLLAMAQSTADVLVYKNIVLIMCASYPLVLDLVAKTSNQEMFDQLCMLKKFVLSHWRTAYPLRATVDDETDVEQWLAQIDQNIGVKLATIKFISEVVLSQTKSPSGNEINSSTIPDNHPVLNKPALESEAKRLLDMLLNYLIEEQYMVSSVFIGIINSLSFVIKRRPQTTIRILSGLLRFNVDAKFPLEGKSDLNYKLSKRFVERAYKNFVQFGLKNQII
B4: Nab6-V5-His6 (the last 210 amino acids) (domain or fragment, S. cerevisiae, UniProt Q03735 925-1134, looked up)
chain: GGGETGTANNTGHENESELEAENENGNETGSFGGLGLAVASSDVKRATSDETDYEDIFNKSSGSSDSSSDVEVIMHSPSDPEYALKSQTLRSSSQTVINSKRPVKIEDEEEAVGMSQLNYRSSLRQAPPRAPSTLSYNHSKNNETPMQDIFTNGETANNRKKKRGSFARHRTIPGSDVMAQYLAQVQHSTFMYAANILGASAEDNTHPDE

Experiments:
ΔN-Pap1-GST = ΔN-Pap1-GST (S. cerevisiae, UniProt P29468 19-568); test: pull-down
Chain of ΔN-Pap1-GST (P29468 19-568, stated change not applied): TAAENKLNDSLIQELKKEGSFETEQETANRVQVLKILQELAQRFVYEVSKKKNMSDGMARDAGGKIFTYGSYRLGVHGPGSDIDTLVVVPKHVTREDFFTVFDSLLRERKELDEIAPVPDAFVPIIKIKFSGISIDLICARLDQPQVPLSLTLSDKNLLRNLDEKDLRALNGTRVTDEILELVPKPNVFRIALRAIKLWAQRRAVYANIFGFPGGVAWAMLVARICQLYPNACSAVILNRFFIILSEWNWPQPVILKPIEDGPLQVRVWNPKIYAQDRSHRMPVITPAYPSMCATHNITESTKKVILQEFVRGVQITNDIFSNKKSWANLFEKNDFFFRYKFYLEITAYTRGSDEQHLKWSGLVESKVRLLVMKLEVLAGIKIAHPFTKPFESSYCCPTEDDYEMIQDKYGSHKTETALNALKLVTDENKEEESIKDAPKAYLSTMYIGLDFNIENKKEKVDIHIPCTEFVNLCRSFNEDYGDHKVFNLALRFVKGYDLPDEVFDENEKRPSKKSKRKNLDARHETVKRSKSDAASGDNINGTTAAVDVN

Pap1-GST = Pap1-GST (S. cerevisiae, UniProt P29468 1-568); test: pull-down
Chain of Pap1-GST (P29468 whole entry): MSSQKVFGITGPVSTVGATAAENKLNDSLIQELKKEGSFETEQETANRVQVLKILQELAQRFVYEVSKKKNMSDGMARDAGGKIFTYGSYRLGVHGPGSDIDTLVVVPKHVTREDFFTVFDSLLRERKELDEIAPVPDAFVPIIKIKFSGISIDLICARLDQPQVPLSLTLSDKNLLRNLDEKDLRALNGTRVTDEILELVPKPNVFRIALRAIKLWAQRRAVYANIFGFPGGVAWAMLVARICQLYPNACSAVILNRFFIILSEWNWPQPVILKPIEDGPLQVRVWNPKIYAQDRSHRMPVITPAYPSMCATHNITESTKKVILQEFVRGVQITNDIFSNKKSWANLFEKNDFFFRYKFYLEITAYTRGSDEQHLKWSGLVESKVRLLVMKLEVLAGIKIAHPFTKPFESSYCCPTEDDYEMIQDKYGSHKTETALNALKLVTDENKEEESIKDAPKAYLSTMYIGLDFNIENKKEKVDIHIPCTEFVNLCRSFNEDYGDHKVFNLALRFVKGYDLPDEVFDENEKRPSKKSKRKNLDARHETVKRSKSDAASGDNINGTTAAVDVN

ΔN-Pap1-His6 = ΔN-Pap1-His6 (S. cerevisiae, UniProt P29468 19-568); test: co-IP
Chain of ΔN-Pap1-His6 (P29468 19-568, stated change not applied): as the sequence (P29468 19-568, stated change not applied) above

Pap1-His6 [1] = biological target: T1, Pap1-His6 (S. cerevisiae, UniProt P29468 1-568); test: co-IP
T1 sequence (P29468 whole entry): as the sequence (P29468 whole entry) above

Pap1-His6 [2] = biological target: T1, Pap1-His6; test: pull-down

| Binder | binding result (ΔN-Pap1-GST) | binding result (Pap1-GST) | binding result (ΔN-Pap1-His6) | binding result (Pap1-His6 [1]) | binding result (Pap1-His6 [2]) |
| --- | --- | --- | --- | --- | --- |
| B1 | binds | binds | binds | binds | – |
| B2 | – | binds | – | – | – |
| B3 | – | – | – | – | binds |
| B4 | – | binds | – | – | – |
